B1: LT1002: murine anti-S1P monoclonal antibody, IgG1 kappa, from hybridoma clone 306D326.26 (antibody, listed as Mus sp., V domains shown)
VH: QAHLQQSDAELVKPGASVKISCKVSGFIFIDHTIHWMKQRPEQGLEWIGCISPRHDITKYNEMFRGKATLTADKSSTTAYIQVNSLTFEDSAVYFCARGGFYGSTIWFDFWGQGTTLTVS
VL: ETTVTQSPASLSMAIGEKVTIRCITTTDIDDDMNWFQQKPGEPPNLLISEGNILRPGVPSRFSSSGYGTDFLFTIENMLSEDVADYYCLQSDNLPFTFGSGTKLEIK

What was measured:
[1] = system: VEGF-induced angiogenesis; experiment: VEGF-induced angiogenesis in GFR Matrigel plug assay; format: in vivo, nu/nu mice; conditions: 10 mg/kg i.p. every 72 hrs, 12 days
Description: Neovascularization in vivo was performed using the GFR Matrigel plug assay as described in Staton, et al., Int J Exp Pathol, 2004. 85(5): p. 233-48. 4-6 week old nu/nu mice were injected in the left flank with 500 uL of ice-cold GFR Matrigel. The GFR Matrigel was injected either alone (control) or after addition of 10 ug/mL VEGF supplemented with 100 ug/ml heparin. Groups consisted of 3 animals for control and sonepcizumab treatment. Animals were treated with the saline or sonepcizumab (10 mg/kg) 1 day prior to the implantation of GFR Matrigel and doses were administrated i.p. every 72 hrs for the duration of the experiment. After 12 days animals were sacrificed; the plugs were excised and immediately fixed in zinc and formalin-free fixative overnight, embedded in paraffin and sectioned (5 um). Paraffin-embedded sections were then stained for CD31 (Pharmingen). Images (9 images per section, 3 sections per plug) were taken by digital camera at 20× magnification and the CD31 positive staining was then quantified by PhotoShop 6.0 program and expressed as angiogenesis score (pixel^2) by ImageJ.

[2] = GLP 28-day safety toxicology study of LT1009 in monkeys; format: in vivo
Description: In addition, blood was collected from recovery animals 48, 72, 144 and 240 hours following the end of the last dose. Parameters monitored during this study included mortality, clinical signs, body weight, qualitative evaluation of the food consumption, ophthalmology, electrocardiography, and clinical pathology (hematology, clinical chemistry, coagulation and urinalysis). Blood samples were also collected for immunophenotyping assessments, at pre-treatment, on the last day of treatment, and on days 35, 42 and at the end of the recovery period. At termination, a macroscopic examination was performed and selected organs were weighed. Histological evaluation of tissues was conducted on all animals.

HUVECs = experiment: HUVEC tube formation on GF-reduced Matrigel; format: cell-based, human; conditions: co-incubated with S1P
Description: FIG. 5 has two panels, A and B. In panel A, S1P is shown to promote neovascularization through induction of HUVECs tube formation and migration, which is reduced by SPHINGOMAB. […] The number of cells that migrated to the Matrigel membrane were counted in five independent fields.
Experiments were performed as described by Visentin et al. (Cancer Cell 2006 March; 9(3):225-38).

[3] = system: fibroblasts (Swiss 3T3, murine cardiac, WI-38); experiment: S1P-stimulated fibroblast proliferation, migration, collagen expression and myofibroblast differentiation; format: cell-based; conditions: 1 μg/mL antibody
Description: See Example 7, below, for experimental details. […] In these experiments, fibroblasts were serum-starved and then treated with 0, 0.1, 0.5, or 1 μM S1P+/−1 μg/mL SPHINGOMAB for 12-24 hr. […] SPHINGOMAB neutralized each of these S1P effects. SPHINGOMAB reduced perivascular fibrosis in vivo in a murine model of a permanent myocardial infarction (E).
S1P makes profound contributions to wound healing by activating fibroblast migration, proliferation and collagen production; SPHINGOMAB neutralizes these effects. Several studies using multiple types of fibroblasts confirm S1P's ability to promote wound healing: 1) S1P increased Swiss-3T3 fibroblast proliferation as measured by ^3H-thymidine incorporation using standard methods (FIG. 7A); 2) S1P promoted the migration of cardiac fibroblasts in a standard scratch wound healing assay. […] In each of these assays, SPHINGOMAB neutralized S1P's. It is anticipated that ocular fibroblasts would respond similarly to S1P and SPHINGOMAB.

CNV lesions = experiment: Laser-induced rupture of Bruch's membrane, murine CNV model (Example 4); format: in vivo, C57BL6/J mice; conditions: 0.5 μg
Description: Female C57BL6/J mice were subjected to laser-induced rupture of Bruch's membrane and administered either 0.5 μg of Sphingomab or an isotype-matched non-specific (NS) antibody diluted in 2 μl of physiological saline. Mice were sacrificed 14 and 28 days after laser rupture.
To induce CNV lesions, the pupils were dilated with ophthalmic tropicamide (0.5%) and phenylephrine (2.5%). A coverslip was placed on the eye. An Oculight GL 532 nm (Iridex Corporation, Mountain View, Calif.) coupled to a slit lamp set to deliver a 100 msec pulse at 150 mW with a 50 μm spot size was used to rupture Bruch's membrane in three quadrants of the right eye located approximately 50 μm from the optic disc at relative 9, 12 and 3 o'clock positions. The left eye served as an uninjured control in all cases. Any lesion not associated with a vapor bubble or lesions that became confluent were excluded from analysis.
To measure CNV lesion size, choroidal flatmounts of the sclera-choroid-RPE complex were prepared and stained for vasculature (R. communis agglutinin I; red) and pericytes (CD 140b; green). […]
To assess collagen deposition, the sclera-choroid-RPE complex was stained with Masson's Trichrome. […] Approximately 30 sections per lesion were evaluated. Quantitation of the volume of collagen deposition was calculated in the same manner as described for CNV lesion volume.

| Molecule | prevention of VEGF-stimulated increase in cellularity and microvessel density [1] [%] | absolute number of T cells on Day 28 ([2]; 100 mg/kg) | mean lymphocyte counts (+/-SD) after treatment ([2]; 100 mg/kg, males and females combined) | tolerability ([2]; 3, 10, 30 and 100 mg/kg every third day over 28 days) | No Observed Toxic Effect Level (NOTEL) ([2]; 30-minute i.v. infusion every third day for 28 days) [mg/kg] | formation of capillary-like structures (HUVECs) | effect on S1P-stimulated fibroblast proliferation, migration, collagen expression, myofibroblast differentiation [3] | choroidal neovascularization (CNV lesions; 14 and 28 days after laser rupture) | fibrosis associated with CNV lesion formation (CNV lesions; 28 days after laser rupture) |
| --- | --- | --- | --- | --- | --- | --- | --- | --- | --- |
| LT1009: humanized anti-S1P IgG1/kappa mAb with Cys to Ala in HCDR2, light chain with 5 backmutations; SEQ ID NO: 31/32 | ~80 | statistically significant decrease | 3.18+/−1.25 10^9 cells/L | well tolerated | 100 |  |  |  |  |
| B1 |  |  |  |  |  | failed to form capillary-like structures | neutralized | dramatically attenuates | significantly reduces |
